Results taken from patent publication CN111333719A.

Legend:
抗HPV16E7蛋白单抗69A6 [1] = assay: indirect competition ELISA, peptide at 10μmol/L competes with coated HPV16E7 whole protein for 69A6
抗HPV16E7蛋白单抗69A6 [2] = assay: indirect competition ELISA, peptide at 1μmol/L competes with coated HPV16E7 whole protein for 69A6

Row | Binder | 抑制率 (抗HPV16E7蛋白单抗69A6 [1]) [%] | 抑制率 (抗HPV16E7蛋白单抗69A6 [2]) [%]
1 | RAHYNIVTFCCKCDSTLR [重叠肽HPV16E7 49-66] | 16.3 | 15.6
2 | LCVQSTHVDIRTLEDLLM [重叠肽HPV16E7 67-84] | 91.6 | 47.3
3 | HVDIRTLEDLLMGTLGIV [重叠肽HPV16E7 73-90] | 93.5 | 56.2
4 | GTLGIVCPICSQKP [重叠肽HPV16E7 85-98] | 92 | 48.6
